The values that follow come from patent US6355473.

Assay in all cases: cell-based or functional assay
Assay [1] has as its target human melanocortin receptor 4 (hMCR4), native form (human) (UniProt P32245).
The target of assay [2] is All the receptor forms tested (hNocR, Ste2-hNocR, Inv-hNocR, αF-hNocR) in the stp22 strains.
Assay [3] addresses αF-hSSTR3 (yeast; human).

Chain of αF-hSSTR3 (yeast; human) (P01149 other isoform, or with tags, fused parts or gaps): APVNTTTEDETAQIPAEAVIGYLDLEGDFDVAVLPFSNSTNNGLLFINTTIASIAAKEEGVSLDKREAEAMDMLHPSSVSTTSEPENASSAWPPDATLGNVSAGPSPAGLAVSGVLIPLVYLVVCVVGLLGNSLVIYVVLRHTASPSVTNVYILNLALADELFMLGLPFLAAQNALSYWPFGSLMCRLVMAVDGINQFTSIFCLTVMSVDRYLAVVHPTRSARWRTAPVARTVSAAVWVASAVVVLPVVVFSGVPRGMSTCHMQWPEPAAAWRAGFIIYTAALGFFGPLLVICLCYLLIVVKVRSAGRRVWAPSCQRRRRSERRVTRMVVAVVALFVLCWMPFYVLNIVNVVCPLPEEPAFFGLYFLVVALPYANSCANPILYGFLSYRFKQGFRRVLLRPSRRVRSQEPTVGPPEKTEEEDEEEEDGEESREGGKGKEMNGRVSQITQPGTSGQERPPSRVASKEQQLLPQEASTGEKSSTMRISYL
Chain of UniProt P32245 (P32245 whole entry): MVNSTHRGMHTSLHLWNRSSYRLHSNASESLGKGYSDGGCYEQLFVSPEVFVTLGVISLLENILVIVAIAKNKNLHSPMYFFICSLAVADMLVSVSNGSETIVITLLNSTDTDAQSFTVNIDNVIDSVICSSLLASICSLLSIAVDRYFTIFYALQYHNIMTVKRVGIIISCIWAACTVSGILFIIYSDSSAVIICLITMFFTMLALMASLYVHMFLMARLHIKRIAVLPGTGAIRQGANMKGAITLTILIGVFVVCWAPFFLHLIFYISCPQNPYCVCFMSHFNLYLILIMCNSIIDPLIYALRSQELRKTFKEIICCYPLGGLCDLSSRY

Take NDP-α-MSH (peptide): the Specific ligand-induced levels of β-galactosidase activity (FUS1-lacZ), stp22 strain compared with wild type in assay [1] turned out to be 2 fold.

In assay [2], FGGFTGARKSARKLANQ (peptide, UniProt Q13519 130-146, looked up) [nociceptin] showed a maximal increase in the levels of β-galactosidase activity (FUS1-lacZ induction), stp22 strains of 10 to 40 fold.

In assay [3], AGCKNFFWKTFTSC (peptide, UniProt P61278 103-116, looked up) [Somatostatin-14] came in with a decrease of EC50 of FUS1-lacZ induction, stp22 strain compared with wild type of 50% and a levels of FUS1-lacZ induction (β-galactosidase activity), stp22 strain compared with wild type of 2 fold.
